In paper PMC12209172, “Poly(ADP-ribose)polymerase 2 is zinc-dependent enzyme and nucleosome reorganizer” (Cellular and Molecular Life Sciences: CMLS, 2025):

Columns and labels:
NP nucleosomes = biological target: T1, NP nucleosomes (Homo sapiens, UniProt Q9UGN5); assay: EMSA of WGR domain-nucleosome complexes (0.7% agarose gel); format: binding, chicken; conditions: no divalent cations or 2 mM Zn2+
T1 construct: WGR domain of PARP2 (residues 77–220) into pET-15b-TEV expression vector; 6xHis (pET-15b-TEV) (N, cleaved yes); made in house; host or cells: Escherichia coli Rosetta2 (DE3) pLysS (WGR)
Method: Sample preparation for EMSA was the same as for spFRET microscopy, although a slightly higher concentration of nucleosomes (2–3 nM) was used. […] Electrophoresis was performed under native conditions at 140 V, + 4 °C for ∼1.5 h. The gels were scanned using Amersham Typhoon RGB imager (Cytiva, Sweden). Fluorescence was excited in the gel at the 532 nm wavelength and recorded in the 570–610 nm (Cy3 signal) and 650–700 nm (FRET signal of Cy5) spectral regions. The resulting images were obtained in green (Cy3 signal) and red (FRET signal of Cy5) colors and merged.
Fig. 3 WGR domain of PARP2 binds zinc ions and reorganizes nucleosome structure. (a) A model of Zn^2+ binding to the WGR domain created on the basis of the PDB structure 6F5B. Two putative binding sites are shown. N- and C-terminal ends of the WGR domain are indicated. The numbering of the residues corresponds to the numbering of the complete PARP2 sequence. (b) CD spectra of the WGR domain (60 µM) in a buffer containing no divalent cations (Me^2+) or 0.5 mM Zn^2+ ions. (c) Content of canonical types of secondary structures in the WGR domain of PARP2 according to the analysis of CD spectra of the WGR domain measured in the absence or presence of 0.5 mM Zn^2+ ions. (d) Changes in the fluorescence spectra of tryptophan residues 148, 151 and 188 of the WGR domain (5 µM) at different concentrations of Zn^2+ ions. […]

Nd nucleosomes = biological target: T2, Nd nucleosomes (Homo sapiens, UniProt Q9UGN5); assay: Fluorescence microscopy of Nd nucleosomes binding to His-tagged WGR immobilized on Ni-NTA beads; design: species or system chicken; conditions: beads with immobilized His-tagged WGR vs without
T2 construct: WGR domain of PARP2 (residues 77–220) into pET-15b-TEV expression vector; made in house; host or cells: Escherichia coli Rosetta2 (DE3) pLysS
Method: The binding of nucleosomes to the WGR domain was confirmed after immobilization of the protein containing His-tag on the surface of Ni-NTA beads using fluorescence microscopy (Figure S6).
Figure S6. Confocal fluorescence (a, c, e) and transmitted-light (b, d, f) imaging of Ni-NTA beads with (a, b, e, f) or without
(c, d) immobilized 6 ×His-WGR. The beads were additionally incubated with Nd nucleosomes (a, b, c, d). The parameters of
measurements and intensity scales in fluorescent images(a, c, e)are the same. […]

B1: WGR domain: recombinant WGR domain of PARP2 (residues 77–220) expressed in Escherichia coli (protein, UniProt O88554 77-220, looked up, fragment)
chain: ECAAKLGKAHVYCEGDDVYDVMLNQTNLQFNNNKYYLIQLLEDDAQRNFSVWMRWGRVGKTGQHSLVTCSGDLNKAKEIFQKKFLDKTKNNWEDRENFEKVPGKYDMLQMDYAASTQDESKTKEEETLKPESQLDLRVQELLKL
modifications: WGR domain
notes: recombinant WGR domain of PARP2 (residues 77–220) expressed in Escherichia coli
NP nucleosomes
  binding of the WGR domain to nucleosomes: binds to nucleosomes in the presence and absence of Zn^2+ ions
Nd nucleosomes
  binding of Nd nucleosomes to Ni-NTA beads: strongly increased
